According to ChEMBL document CHEMBL1143427, “Interactions of ceftobiprole with beta-lactamases from molecular classes A to D” (Antimicrob Agents Chemother, 2007):

How the values were obtained:
Conditions in all cases: Enterobacter cloacae
[1] = substrate: CC(C)(O/N=C(\C(=O)N[C@@H]1C(=O)N2C(C(=O)[O-])=C(C[n+]3ccccc3)CS[C@H]12)c1csc(N)n1)C(=O)O
Description: (§1) Activity of Enterobacter cloacae 4080 AmpC (P99) assessed as drug hydrolysis by spectrophotometry

[2] = substrate: CC1(C)S[C@@H]2[C@H](NC(=O)Cc3ccccc3)C(=O)N2[C@H]1C(=O)O
Description: as §1

[3] = substrate: CO/N=C(\C(=O)N[C@@H]1C(=O)N2C(C(=O)[O-])=C(C[N+]3(C)CCCC3)CS[C@H]12)c1csc(N)n1
Description: as §1

[4] = substrate: Nc1nc(/C(=N/O)C(=O)N[C@@H]2C(=O)N3C(C(=O)O)=C(/C=C4\CCN([C@@H]5CCNC5)C4=O)CS[C@H]23)ns1
Description: as §1

[5] = substrate: O=C(Cc1cccs1)N[C@@H]1C(=O)N2C(C(=O)[O-])=C(C[n+]3ccccc3)CS[C@H]12
Description: as §1

[6] = substrate: CO/N=C(\C(=O)N[C@@H]1C(=O)N2C(C(=O)[O-])=C(C[N+]3(C)CCCC3)CS[C@H]12)c1csc(N)n1; remark: listed apart in the source
Description: (§2) Activity of Enterobacter cloacae 908R AmpC assessed as drug hydrolysis by spectrophotometry

[7] = substrate: O=C(Cc1cccs1)N[C@@H]1C(=O)N2C(C(=O)[O-])=C(C[n+]3ccccc3)CS[C@H]12; remark: listed apart in the source
Description: as §2

B1: Beta-lactamase (Enterobacter cloacae), P05364 (protein)
chain: MMRKSLCCALLLGISCSALATPVSEKQLAEVVANTITPLMKAQSVPGMAVAVIYQGKPHYYTFGKADIAANKPVTPQTLFELGSISKTFTGVLGGDAIARGEISLDDAVTRYWPQLTGKQWQGIRMLDLATYTAGGLPLQVPDEVTDNASLLRFYQNWQPQWKPGTTRLYANASIGLFGALAVKPSGMPYEQAMTTRVLKPLKLDHTWINVPKAEEAHYAWGYRDGKAVRVSPGMLDAQAYGVKTNVQDMANWVMANMAPENVADASLKQGIALAQSRYWRIGSMYQGLGWEMLNWPVEANTVVEGSDSKVALAPLPVAEVNPPAPPVKASWVHKTGSTGGFGSYVAFIPEKQIGIVMLANTSYPNPARVEAAYHILEALQ
For B1, the Km [1] was 2.9 µM, the kcat [1] was 0.021 s⁻¹ and the Km [2] was 4.7 µM. It also gave a kcat [2] of 32 s⁻¹, a Km [3] of 67 µM and a kcat [3] of 0.27 s⁻¹. The Km [4] was 9.4 µM, the kcat [4] was 0.21 s⁻¹ and the Km [5] was 330 µM. It also gave a kcat [5] of 2500 s⁻¹, a Km [6] of 16 µM and a kcat [6] of 0.82 s⁻¹. The Km [7] was 360 µM and the kcat [7] was 3200 s⁻¹.
